Assay: yeast display, Sf9 membrane polyspecificity reagent, FACS + sequencing; frameworks hold sequencing errors
Outline: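 Polyreactivity labels are assigned by the sorting gate from which each nanobody was recovered. The gates were low and high (top ~1%), set on anti-HA fluorescence for expression and streptavidin fluorescence for reagent binding. Before sorting, galactose-induced (36–48 hours) yeast display cells were stained for 1 hour at 4 °C with 10% biotinylated, detergent-solubilized Sf9 membrane reagent.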

## QVQLVESGGGLVQAGGSLRLSCAASGFIFRYYAMGWYRQAPGKERELVATINSSGGSTYYADSVKGRFTISRDNAKNTVYLQMNSLKPEDTAVYYCYAGYVSYRGQSRYEYWGQGTQVTVSS
  polyreactivity (PSR sort gate): high polyreactivity

## QVQLVESGGGLVQAGGSLRLSCAASGSTFSTNAMGWYRQAPGKERELVAAISYSGGSTYYADSVKGRFTISRDNAKNTVYLQMISLKPEDTAVYYCAADGYYYNSGGRYYEFYYWGQGTQVTVSS
  polyreactivity (PSR sort gate): low polyreactivity

## QVQLVESGGGLVQAGGSLRLSCAASGRILRYNAMGWYRQAPGKERELVASISGNGGSTYYADSVKGRFTISRDNAKNTVYVQMNSLKPEDTAVYYCNKYYYSSRGQKEYDYWGQGTQVTVSS
  polyreactivity (PSR sort gate): low polyreactivity

## QVQLVESGGGLVQAGGSLRLSCAASGSTFTQYAMGWYRQAPGKERELVAAINSRGDSTYYADSVKGRFTISRDNAKNTVYLQMNSLKPEDTAVYYCAATGYLSYYQQDLWLEYYYWGQGTQVTVSS
  polyreactivity (PSR sort gate): low polyreactivity

## QVQLVESGGGLVQAGGSLRLSCAASGSIFVAYDMGCYRQAPGKESALVAAIDSVGRTNYADSVKGRFTISRDNAKNTVYLQMNSLQPEDTAVYYCNADQYYSFYDPDDYWGQGTQVTVSS
  polyreactivity (PSR sort gate): low polyreactivity

## QVQLVESGGGLVQAGGSLRLSCAASGRIFVPYVMGWYRQAPGKERELVASISDSDTSTYYADSVKGRFTISRDNATNTVYLQMNSLKPEDTAVYYCNVDYWGQGTQVTVSS
  polyreactivity (PSR sort gate): low polyreactivity

## QVQLVESGGGLVQAGRSLRLSCAASGSTLLWNAMGWYRQAPGKERELVAVISWSGGSTYYGDSVKGRFTISRDNAKNTVYLQMNSLKPEDTAVYYCAHDYDGYVWDTEYDYWGQGTQVTVSS
  polyreactivity (PSR sort gate): low polyreactivity

## QVQLVESGGGLVQAGGSLRLSCAASGFTFDWYAMGWYRPAPGTERELVAAISTRGTSTYYADSVKGRFTISRDNAKNTVYLQMNSLKPEDTAVYYCAKRSYHGGDYWGQGTQVTVSS
  polyreactivity (PSR sort gate): high polyreactivity

## QVQLVESGGGLVQAGGSLRLSCAASGSIFQSYAMGWYRQAPGKERELVAAIDRSGTSTYYADSVKGRFTISRDNAKNTVYLQMNSLKPEDTAVYYCNTLRRSWQMDYWGQGTQVTVSS
  polyreactivity (PSR sort gate): low polyreactivity

## QDQLVESGGGLVQAGGSLRLSCAASGLIFRIYAMGWYRQAAGKERELVAAITSGGTSTSYADSVKGRFSISRDNAKNTVYLQMNSLKPEDTAVYYCNARWSDRVRIGLDYWGQGTQVTVSS
  polyreactivity (PSR sort gate): high polyreactivity

## QVQLVESGGGVVQAGGSLRLSCAASGSTFRTNAMGWYRQAPGKERELVAAITSTGGSTYYADSVKGRFTISRDNAKNTVYLQMNSLKPEDTAVYYCAAYYVPGYYYWGQGTQVTVSS
  polyreactivity (PSR sort gate): high polyreactivity

## QVQLVESGGGLVQAGGSLRLSCAASGGTFDVNAMGWYRQAPGKERELVAAITWSGGNTYYADSVKGRFTISRDNAKNTVYLQMTSLKPEDTAVYYCATDFSPVYYTRYDYWGQGTQVTVSS
  polyreactivity (PSR sort gate): low polyreactivity

## QVQLVESGGGLVQAGGSLRLSCAASGSIFRLYAKGSYRQAPGKERELVARITTGGSTNYADSVKGRFTISRDNANNTVYLQMNSLKPEDTAVYYSWGVPRRYYYWGQGTQVTVSS
  polyreactivity (PSR sort gate): high polyreactivity

## QVQLQESGGGLVLAGGSLRLSCAASGSISAQAYMGWDRQAPGKEREHVAGINYGDNTNYADSVKGRFTISRDNEHRVSADEQPETGRYRGVLLRGFLELFYYYIYWGQGTQVTVSS
  polyreactivity (PSR sort gate): high polyreactivity

## QVQLVESGGGLVQAGGSLRLSCAASGSIFWSYAMGWYRQAPGKERELVAAITRSGGSTYYADSVKGRFTISRDNAKNTVYLQINSLKPEDTAVDYCNAATPYSWGYRRGYWGQGTQVTVSS
  polyreactivity (PSR sort gate): high polyreactivity

## QVQLVESGGGLVQAGGSLRLSCAASGYIFKPNTMGWYRQAPGKERELVAAITRGGRTKYADSVKGRFTISRDNAKNTVYLQMNSLKPEATAVYYCNKVRTVTTYEYWGQGTQVTVSS
  polyreactivity (PSR sort gate): high polyreactivity

## QVQLVESGGGLVQAGGSLRLSCAASGLIFARNVMGWYRQAPGKERELVAAISWSSGSTYYADSVKGRFTISRDNAKNTVSLQMNTLKQEDTAVYYCAARKIKSSQYFPTLYYYWGQGTQVTVSS
  polyreactivity (PSR sort gate): high polyreactivity

## QVQLVESGGGLVQAGGSLRLSCAASGRIFSGYAMGWYRQAPGKERELVAVITSTGGSTYYADSVKGRFTISRDNAKNTVYLQMNSLKPEDTAVYYCATRGVRRYYKTMNYWGQGTQVTVSS
  polyreactivity (PSR sort gate): high polyreactivity

## QVLLQESGGGLVQAGGSLRLSCAASGNIFSAGGMGWYRQAPVNERELVAGIGTGTSTNYADRVKGRFTISRDNAKNTVYLQMNSLKPEDTAVDYCAAAYYSGLSHWYWGQGTQVTVSS
  polyreactivity (PSR sort gate): low polyreactivity

## HVQLVESGGGLVQAGGSLRLSCAASGFIFRGHVMGWYRQAPGKERELVAAISGGSTTYADSVKGRFTISRDNAKTTVYLQMNSLKPEDTAVYYCAKRDQDRTFPNGYWGQGTQVTVSS
  polyreactivity (PSR sort gate): high polyreactivity

## QDQLVESGGGLVQAGVSLRLSCAASGIISSDNAMGWYRQAPGKERELVAAITVSGGSTYYADSVKRRFTISRDNAKNTVYFQMNSLKPEDTAVYYCAADYSLEYGFDYWGQGTQVSVSS
  polyreactivity (PSR sort gate): low polyreactivity

## QVQLVESGGGLVQAGGSLRLTCAASGRIFVYNAMGWYRQAPGKESEFVATITSSGGRTYYADSVKGRFTISRDNAKNTVYLQMNSLKTEDTAVYDCAASPHNYGRNTVYRYKYWGQGTQVTVSS
  polyreactivity (PSR sort gate): high polyreactivity

## QVQLVESGGGLVQAGGSLRLSCAASGSIFRYYAMGWYRQAPGKERELVAGITGSTGRTYYADSVKGRFTISRDKAKNTVYLELNSLKPVDTEVYYCSARSRYYEYDYWGQGTQVTVTS
  polyreactivity (PSR sort gate): low polyreactivity

## QVQLVESGGGLVQAGGSLRLSCAASGSIFTFYAMRWYRQAPGKERELVATINRIGGNRYYADSVKGRFTISRDNAKNTVYLQMNSLKPEDTAGYYCAAKPTYRGYGYGSWGQGTQVNVSS
  polyreactivity (PSR sort gate): low polyreactivity

## QVQLVESGGGLVQAGGSLRLSCAASGSTFSKYTMGWYRQAPGKERELVAAISRSGGRTYYADSVKGRFTISRDNAKNTVYLQMNSLKPEDTAVYYCATVVYVFGYSSPMYYWGQGTQVTVSS
  polyreactivity (PSR sort gate): high polyreactivity

## QVQLVESGGGLVQAGGSRRLSCAASGSIFSQYAMGWYRQAPGKEREFVAAINWSGGRTRYADSVKGRFTISRDNAKNTVYLQMNSLKPEDTAVYYCAKVYSLYSYSGRYDYWGQGTQVTVSS
  polyreactivity (PSR sort gate): high polyreactivity

## QVQLVESGGGLVQAGGSLRLSCAASGRNFWVYAMGWYRQAPGKERELVAAISLSGGRTYYADSVKGRFTITRDKAKNNVNLQMNSLKPEDTAVYYCYAVYPKRGGGRIVDYWGQGTQVTVSS
  polyreactivity (PSR sort gate): high polyreactivity

## QVQLVESGGGLVQAGGSLRLSCAASGSTIAYYAMGWYRQAPGKERELVAAISKRGGSTYYADSVKGRFTISRDNAKNTVYLQMNSLKPEDTAGYYCATGRSTDKGYYFWGQGTQVTVSS
  polyreactivity (PSR sort gate): high polyreactivity

## QVQLVESGGGIVQAAGSLRLSCAASGFTIYYYAMVWYRQAPGKERELVASITSGGSTYYADSVKGRFTISRDNAKNTVYLQMNSLKPEDTAVYYCAITRFHSKEGVYWGQGTQVTVSS
  polyreactivity (PSR sort gate): low polyreactivity

## QVQLVESGGGLVQAGGSLRLSCAASGFTFKLNAMGWYRQAPGKERELVAAISWGGGTTYYADSVKGRFTISRDNAKNTVYLQMNSLKPEDTAVYYCAADGTGTYDYWGQGTQVTVSS
  polyreactivity (PSR sort gate): low polyreactivity

## QVQLVESGGGLVQAGGSLRLSCAASGITFGSYAMGWYRQAPGKERELVATISKSGGSTYYADSVKGRFTISRDNEKNTVYLQMNSLKPEDTAVYYCARRYVAKRMDFWGQGTQVTVSS
  polyreactivity (PSR sort gate): high polyreactivity

## QVQLVESGGGLVQAGGTLRLSCAASGLIFGRNAMGWYRQAPGKEREFVATYADSVKGRFTISRYNAKNTVYLQMNSLKPEDTAVYYCATRFVWPSYGYYVQGRFDSWGQGTQVTVSS
  polyreactivity (PSR sort gate): low polyreactivity

## QVQLVESGGGLVQAGGSRRLSCAAAGSTFGVIVMGWYREAPGKEREVVAAITKSGGSTYYADSVKGRFTISRDNAKNTVYLQMNSLKPEDTAVYFCIDAWGREYDYWGQGTQVHVSS
  polyreactivity (PSR sort gate): high polyreactivity

## QVQLQESGDGLVQAGGSLRLSCAASGTIFTPHQMGWYRQAPGNEREFVATIDYGSSTNYADSLKGLFTISRDNAKNTMYPQMNSLKPEDTAVYYCANYYWGQGTQVTVSS
  polyreactivity (PSR sort gate): low polyreactivity

## QVQLVESGGGLVQAGGSLRLSCAASGRTFDIYAMGWYRQAPGKERELVAAISSGGSTYYADSVKGRFTISRDNAKNTVYLQINSLKPEDTAVYYCAVRWYDQVSRRGIGYYWGQGSQVTVSS
  polyreactivity (PSR sort gate): low polyreactivity

## QVQLVESGGGLVQAGGSLRLSCAASGIIFSSNAMGWYRQAPGKERELVAAISRRGGSTYYADSVKGRFTISRDNAKNTVYLQMNSLKPEDTAVYYCNALLYNGAGYDYWGQGTQVTVSS
  polyreactivity (PSR sort gate): high polyreactivity

## QVQLVESGGGLVQAGGSLRLSCAASGRTSGFNTMGWYRQAPGKERELVAAISFSGGSTYYADSVKGRFTISRDNAKNTVYLQMNSLKPEDTAVYYCNALYRYLYRSGDYWGQGTQVTVSS
  polyreactivity (PSR sort gate): low polyreactivity

## QVQLVESGGGLVQAGGSLRLSCSASGRIFSTYAMGWYRQAPGKERELVAAINKIGGSTYYADSVKGRFTISRDNAKNTVYLQMNSLKPEDTAVYYCAADAPYYPVRRYYYWGQGTQVTVSS
  polyreactivity (PSR sort gate): low polyreactivity

## QVQLVETGGGLVQAGGSLRLSCAPSGSIFEYNGMGWYRQAPGKERELVAAITTTGTTDYADSVKGRFTISRDNAKNTVYLQMNSLKPEDTAVYYCAADYTYYYKGEYDYWGQGTQVTVSS
  polyreactivity (PSR sort gate): low polyreactivity

## QVQLVESGGGLVQAGGSLRLSCGAAGSIFAPYALGWYRQAPGKERELVAAISWTGGRTYYADSVKGRFTISRDNAKNTVYLQRNSLKPEDTAVYYCAAAYYGTRPYGYWGQGSQVTVSS
  polyreactivity (PSR sort gate): high polyreactivity

## QVQLVESGGGLVQAGGSLRLSCAPSGITFRYYAMGWYRQAPGKERELVAAITRSGSTTYADSVKGRFTISRDNAKNTVYLQMNSLKPEVTAVYYCAVDYYYLTGGVDYWGQGTQVTVSS
  polyreactivity (PSR sort gate): low polyreactivity

## QVQLVESGGGLVQAGGTLRLSCAASGRIFSYNAMGWYRQAPGKERELVAAITWRGGNTYYADSVKGRFTISRDNALNTVYLQMNSLQPEDTAVYYCAAQRGRWAPMYFWGQGTQVTVSS
  polyreactivity (PSR sort gate): high polyreactivity

## QVQLVESGGGLVQAGGSLRLSCSASGFTFFYYAMGWYRQAPGKERELVASISSGGSSTYYADSVKGRFTISRDNAKNTVYLQMNSLKPEDTAVYYFAATSRYRGSWYYYWGQGTQVTVSS
  polyreactivity (PSR sort gate): high polyreactivity
